{"source": "a protein production outcome set (Wang et al. 2014)"}
{"assay": "label from the status in PepcDB records"}
{"sequence": "MDRRRFIKGSMAMAAVCGTSGIASLFSQAAFAADSDIADGQTQRFDFSILQSMAHDLAQTAWRGAPRPLPDTLATMTPQAYNSIQYDAEKSLWHNVENRQLDAQFFHMGMGFRRRVRMFSVDPATHLAREIHFRPELFKYNDAGVDTKQLEGQSDLGFAGFRVFKAPELARRDVVSFLGASYFRAVDDTYQYGLSARGLAIDTYTDSKEEFPDFTAFWFDTVKPGATTFTVYALLDSASITGAYKFTIHCEKSQVIMDVENHLYARKDIKQLGIAPMTSMFSCGTNERRMCDTIHPQIHDSDRLSMWRGNGEWICRPLNNPQKLQFNAYTDNNPKGFGLLQLDRDFSHYQDIMGWYNKRPSLWVEPRNKWGKGTIGLMEIPTTGETLDNIVCFWQPEKAVKAGDEFAFQYRLYWSAQPPVHCPLARVMATRTGMGGFPEGWAPGEHYPEKWARRFAVDFVGGDLKAAAPKGIEPVITLSSGEAKQIEILYIEPIDGYRIQFDWYPTSDSTDPVDMRMYLRCQGDAISETWLYQYFPPAPDKRQYVDDRVMS", "protein production": "failed"}
{"sequence": "MDRTHERVLQAMAENLGEGLPRAIPLLAEKAPGLLLEHGRSWTYAMPEKGALDEKTRTLILLGIALATGSEACVKAMAHRAKRLGLSKEALLETLKIARQAQANAVLGHAAPLLEVL", "protein production": "not failed"}
{"sequence": "MDSDPLGVFPNSPKYHPYYSQTTEFGGVIDLGLSLRTIQHEIYHSSGQIMTCGKGYCSNEGYRRKWGYVKVTMDGLVVGRKVCVLDHGSYSTLAHQLEDMFGMQSVSGLRLFQMESEFCLVYRDEEGLWRNAGDVPWNEFIESVERLRITRRNDAVLPF", "protein production": "failed"}
{"sequence": "MDSGKSRSLETTVKRVYRDLLLPKINTSKKMSTLTNSPSSLEGTPGIKKNSGEMQAEASAERVKLTKSIKEKQNNELEKVALKRKADSEEKLVGKKEAKIMELDNQLVTTVPLPHIPLKNIMDVEMKLVYVDEEDVSYEFAQPNMCLGLQATGQTATTMPPASPRDLTTLPQIDKWLQVALKDASSCYRQKKYAVAAGQFRTALELCSKGAALGKPFEAHAEDIASIASFIETKLVTCYLRMRKPDLALNHAHRSIVLNPAYFRNHLRQAAVFRCLERYSEAARSAMIADYMFWLCGGSEHSVSKLIKLYWQAMIEEAITRAEAFSVMYTPFATRIKPENIEKVKEVFMRTHPTYVDCIYTDTQGLHVLPQTADWSCFPPQQYLLTLGFKNKEDGKFLEKVSSRKLPTYTEHKTPFSPLTREDTVRHMETVGKRILPILDFIRSTQLNGNFHACSGVMEKLHYASLLSRLQRVKEQAQVINQAMAELATVPYLQDISQQEAELLQSLMADAMDTLEGKKSDKERVWNTIQKVKF", "protein production": "failed"}
{"sequence": "MDSIQESDVLNAVKTKLPPCCLRIFRNKIILVGTYDLDKSTGYRSGSLDVFTMDLKLLCSNNTYGAILDLKLSPFDDTLICTAHSTGNIMLWRIRCTDKDDFQSNELDIHAIANLQLFEKDVLIASCHFSPLDCKKLLVTNTAGEAATIDIRTLSVQFTASAIAQAYSKLDKIDYEVQGATEKVIHVESGQFLKPHELECWTAEFGSLQPFQDVVFTGGDDSRIMAHDLRSKEFIWSNNRIHDAGVVSIKCSQPNFRNNKPTSIITGSYDDNIRSLDLRMMGESIFPGANVPTVNKLACDLGGGVWRFVESPIDQEQSHHNGSDRLLVCCMYNGAKVVTMNDNSDEYFQIQHYLKKGHDSMCYGGDWSNSLIATCSFYDNSLQTWIV", "protein production": "failed"}
{"sequence": "MDSLVASYASSDEEEDLQPRREAFTVKSSEPSASSLFSAIPQPKELKSSEDGDLGSSSSRGKSSSFLSSLPPPKSSISRKKNPNPSSIPKRVVQIRLPVNPRPSNLDDEDDEEEEKARKKRKQMESASASHDSSVRSFLSAMPAPKSSQTLGALPSLGSGSGRRSNLETETPSIAFPQTDSGISDQQNQSYESFSHSNSETEQIVGVDNYYATGYDGGYETIPSGSSVGYDGSSYGGNTWNGGGFEAMTGLPEAVVAMDSGARRGRRGRNQMPEIVEVKQDELMKNRPRVDQVKSTGIAFGPAYQPVTSSSKGKVSKLHKRKHQITALFMDMKHKESELTERRSRGLLTKAETQAKYGW", "protein production": "failed"}
{"sequence": "MDSMILGRYIPGDSIVHRLDPRSKLLAMMLLILIVFWANNPLTNLILFIATGIFIALSGVSLSFFIQGLKSMFFLIAFTTIFQLFFISNGNVLFEFSFVRITDYALQQAGIIFCRFVLIIFFSTLLTLTTMPLSLASAVEALLAPLKRVKVPVHEIGLMLSMSLRFVPTLMDDTTRIMNAQKARGVDFGEGSIVQKVKAMIPILIPLFATSLKRADSLAIAMEARGYQGGKGRSQYRQLKWTLKDTLTILVILVLGCCLFFLKS", "protein production": "failed"}
{"sequence": "MDSMKLYDAIIGTVEKHIAPIAAKVGNQPHVRAMRDGFIVAMPFIIVGSFILIFAFPPFAEDTTFTFGRLWLDFATTHFDTIMMPFNMSMGIMTIFVSLGVAYSLAKAYKMDGITSAVLSLMCFLLVAAPAQDGSLAMKHMGGTGIFTAVMCAFFAVELYRFMKKHNITIRMPEQVPPAIARSFEVLLPVLAVFVTLYPLSIFVQTQYDMLIPDAVMAMFKPLISASNTLPAIIGALLMCQLLWFAGIHGAAIVVGLLSPIFLTNISGNIDAFVAGQPVPNIFTQPFWDFYIFIGGSGATLALVLLMSFSRSVHLKSIGRMSAVPGFFQINEPVIFGSPIVMNPTLFIPFVFAPVINATIAYFAVHLGFVGMGVATTPWTTPAIIGASWGSGWTFSPVLLVVGLLILDLLIYFPFFKMFEKQMLEQELPTTKETKQAEQPAGEGVTA", "protein production": "failed"}
{"sequence": "MDSNTFVSTNIKKERNVDSVLSKGKPVSILLMGTDTGELGRNWVGRTDSMILVIINPKTKKTLLMSIPRDSMVSIPGYEYTFPQKINAAYEYPANGKGHPETSIKTVEKWLNVPIDFYGIVNMEALEQITNKAGGISVKSPLTFTFSEDTAHDYGNNLYTFTKGSTKYKYYKNGSTLTKTSNIMNGAAALAFTRMRYNDPLGDYGRTLRQRLVFEAIAKKATVLIPQIVNKKFLNSISKQGKTDLTFNDMVTLASNYRKALKNIKSDSVQGTDYEYSGISYQVVASKEKQRVTNKIRKFLGLKKAKSGPLYASKVTNGVVILEHHHHHH", "protein production": "failed"}
{"sequence": "MDSRKALDGLAVTLMIILCLTWGLQQVALKATSAEIAPLMQIAIRSGISALLVGIMMAVRGERLSLAGGMWRPGLAVGFLFALEYLLVGEGLRHTTASHMVIFLYTAPVFAAIGLHLKLRSERLRPVQWFGIALAFGGIVVSFYGRGGHTASLSVASVIWGDVLGLAAGMAWGMTTVVIRTSRLAACSATQTLLFQLLGAFILLLPAAAVLDQTYFNPTRLGWACLIFQTLIVSFASFLVWFWLLRHYVASRLGVLSFMTPLFGVALGAWLLNEPLERGFLAGALLVLTGIILVSGHGWLRQLGNGAGAAVQEQAREPDLP", "protein production": "failed"}
{"sequence": "MDSVVSDVSDLVEPDEELKAWQTDRTRAPIATKIVVAGGFGAGKTTLVTAVSEITPLQTEALMTQASEDTDDLTGTPDKLTTTVAMDFGRITLDDDLVLYLFGTPGQQRFWFMWDDLVRGAIGAVVLADTRRLSDCFPALDYFESCGLPYVVAVNHFDGSEKFEPEDVREALTVPAHIPVMIMDARRRISVIETLLALVGHALEVSPELEHHHHHH", "protein production": "not failed"}
{"sequence": "MDTELMKLDVHVTAWSRTPSSSGFLNSVMISRDRDFEEFIINDRDGSVTSLGSYQNPSRGPDPLIFLDFRNFEPNYVYQLLLSQFHDHVLSEHIADQIGYTFGTCNSPTSTTDLDQESEEEE", "protein production": "failed"}
{"sequence": "MDTLEPTAVDTHVSAEQILRDVYKKGQKARGSTNIDILDLEELREYQRRKRTEYEGYLKRNRLDMGQWIRYAQFEIEQHDMRRARSIFERALLVDSSFIPLWIRYIDAELKVKCINHARNLMNRAISTLPRVDKLWYKYLIVEESLNNVEIVRSLYTKWCSLEPGVNAWNSFVDFEIRQKNWNGVREIYSKYVMAHPQMQTWLKWVRFENRHGNTEFTRSVYSLAIDTVANLQNLQIWSDMEVAKLVNSFAHWEAAQQEYERSSALYQIAIEKWPSNQLLKAGLLDFEKQFGDINSIEETISYKRKMEYETILSNNAYDYDTWWLYLDLISESFPKQIMQTFEKAIVDSRPKELSKNVQWKRYIYLWMRYICYVELELENSLLEEELFQRLIDDIIPHKHFTFSKIWLMYAKFLIRHDDVPKARKILGKAIGLCPKAKTFKGYIELEVKLKEFDRVRKIYEKFIEFQPSDLQIWSQYGELEENLGDWDRVRGIYTIALDENSDFLTKEAKIVLLQKYITFETESQEFEKARKLYRRYLELNQYSPQSWIEFAMYQTSTPTEQQLLDLAKLQSENVDEDIEFEITDENKLEARKVFEEAIVFFKEKDDKQGRLSILEALKDYEETYGTELDQETVKKRFPKVIKKVRLQNGVEEEFVDYIFPDDIDDDKPKPSKFLELAKKWKQEQAL", "protein production": "failed"}
{"sequence": "MDTLQFQKNPETAAKMSAYMKHQFVFAGIPAPERQALSKQLLKESHTWPKEKLCQEIEAYYQKTEREYQYVAIDLALQNVQRFSLEEVVAFKAYVPQKAWWDSVDAWRKFFGSWVALHLTELPTIFALFYGAENFWNRRVALNLQLMLKEKTNQDLLKKAIIYDRTTEEFFIQKAIGWSLRQYSKTNPQWVEELMKELVLSPLAQREGSKYLAKASE", "protein production": "not failed"}
{"sequence": "MDTMRSLRFISAEALVSHPQVARQSLDSVAHNLYPLLFKASYLLEQAEVTRAVLGRWPLEEFRLGALLGPGADHPQDLRDRTCRACLEALVRGLADHVLQDRSRRRLRVADLTGIRDVQVQRCPCGRALGRWGRTQLLARTCCELQAEPLAAGRPVEVLADLFVTEGNFEAVVQALRPAGPAPLRVHCPSFRADSLSPSQLLHVLRLAGPGALRKLEVVHNVRLHAGHVQQLLAQVGFPRLASLTLPTKAFDAPPTYASTPDGEDPLLASIARELSKMAQLTELSVAFSTLTGKIPTLLGPLQTPLRVLDLANCALNHTDMAFLADCAHAAHLEVLDLSGHNLVSLYPSTFFRLLSQASRTLRILTLEECGIVDSHVGMLILGLSPCHRLRQLKFLGNPLSARALRRLFTALCELPELRCIEFPVPKDCYPEGAAYPQDELAMSKFNQQKYDEIAEELRAVLLRADREDIQVSTPLFGSFDPDIQETSNELGAFLLQAFKTALENFSRALKQIE", "protein production": "failed"}
{"sequence": "MDTPILIPTDMNRIPFFYLLQISDPLFPIGGFTQSYGLETYVQKGIVHDAETSKKYLESYLLNSFLYNDLLAVRLSWEYTQKGNLNKVLELSEVFSASKAPRELRAANEKLGRRFIKILEFVLGENEMFCEMYEKVGRGSVEVSYPVMYGFCTNLLNIGKKEALSAVTYSAASSIINNCAKLVPISQNEGQKILFNAHGIFRRLLERVEELDEEYLGSCCFGFDLRAMQHERLYTRLYIS", "protein production": "failed"}
{"sequence": "MDTPLGSVLYITLGCAKNEVDTDRMRSLLTAAGYEEAFDPQDADIAIVNTCSFLASATSESIETTLELANEVQDGVRSCPIVMCGCVPSRYGDDLPDELPEVAAFVKADEEDGIVAVIDGVLGVEREIAAYIPQVKRTVEGAVAYVKISDGCNRFCSFCMIPYIRGRYHSRNSESIISEVRDLVAGGVREIVLIGQDTGIWGTDFADEDVADGSPRNLAQLLRAVAEAVRPHNVWVRVLYLQPEGMTDELIDTIRDTPEVLPYIDIPVQHCDARILKAMRRSGSRQELEDLFRDLRERIPGIVIRSTAMVGFPTETDDEFRDLIDFMDTVGFDYTSVFAYSREEGSLAAKMEGQVDEEVKLERAQEAMDLAESLGFAATAAHVGERAQVIVDGIEETEDGAELIGHAWFQAPDSDGAVHLDASEASVGDILTVEFTDSFCYELIGHVVE", "protein production": "failed"}
{"sequence": "MDTSDLFASCRKGDVGRVRYLLEQRDVEVNVRDKWDSTPLYYACLCGHEELVLYLLANGARCEANTFDGERCLYGALSDPIRRALRDYKQVTASCRRRDYYDDFLQRLLEQGIHSDVVFVVHGKPFRVHRCVLGARSAYFANMLDTKWKGKSVVVLRHPLINPVAFGALLQYLYTGRLDIGVEHVSDCERLAKQCQLWDLLSDLEAKCEKVSEFVASKPGTCVKVLTIEPPPADPRLREDMALLADCALPPELRGDLWELPFPCPDGFNSCPDICFRVAGCSFLCHKAFFCGRSDYFRALLDDHFRESEEPATSGGPPAVTLHGISPDVFTHVLYYMYSDHTELSPEAAYDVLSVADMYLLPGLKRLCGRSLAQMLDEDTVVGVWRVAKLFRLARLEDQCTEYMAKVIEKLVEREDFVEAVKEEAAAVAARQETDSIPLVDDIRFHVASTVQTYSAIEEAQQRLRALEDLLVSIGLDC", "protein production": "failed"}
